Laboratory results published in patent publication US20030147885A1 (IDEC PHARMACEUTICALS, published 2003).

T1: human B lymphocyte-restricted differentiation antigen Bp35 (CD20) (human, UniProt P11836 1-297)
T1 construct: whole, on cells; Presented on SB cells, other CD20 positive B cell lines or acetone-fixed human tissues; also called CD20 antigen; CD20 surface antigen
T1 sequence (looked up): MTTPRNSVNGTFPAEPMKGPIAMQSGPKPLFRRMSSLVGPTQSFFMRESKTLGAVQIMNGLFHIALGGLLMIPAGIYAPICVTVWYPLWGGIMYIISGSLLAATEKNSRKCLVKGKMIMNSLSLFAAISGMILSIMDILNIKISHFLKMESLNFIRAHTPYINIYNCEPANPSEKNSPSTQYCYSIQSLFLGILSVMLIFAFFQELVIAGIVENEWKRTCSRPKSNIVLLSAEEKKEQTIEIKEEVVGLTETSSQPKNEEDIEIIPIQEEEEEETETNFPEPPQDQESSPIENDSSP

B1: chimeric anti-CD20 antibody produced by the CHO transfectoma (antibody, V domains shown)
VH: QVQLQQPGAELVKPGASVKMSCKASGYTFTSYNMHWVKQTPGRGLEWIGAIYPGNGDTSYNQKFKGKATLTADKSSSTAYMQLSSLTSEDSAVYYCARSTYYGGDWYFNVWGAGTTVTVSA
VL: QIVLSQSPAILSASPGEKVTMTCRASSSVSYIHWFQQKPGSSPKPWIYATSNLASGVPVRFSGSGSGTSYSLTISRVEAEDAATYYCQQWTSNPPTFGGGTKLEIK
notes: domain: heavy chain gamma 1 constant region (Kabat numbering amino acids 114-478); also called C2B8; CHO produced chimeric anti-CD20; not shown: human immunoglobulin light chain kappa constant region, Kabat numbering amino acids 108-214, allotype Km 3
B2: chimeric anti-CD20 antibody produced by the SP2/0 transfectoma (antibody, V domains shown)
VH: B1 VH
VL: B1 VL
notes: domain: heavy chain gamma 1 constant region (Kabat numbering amino acids 114-478); Same construct as m2, but produced in SP2/0 mouse myeloma cells; also called SP2/0 produced antibody; not shown: human immunoglobulin light chain kappa constant region, Kabat numbering amino acids 108-214, allotype Km 3

How the values were obtained:
[1] = target: human B lymphocyte-restricted differentiation antigen Bp35 (CD20) (human) (UniProt P11836); assay: radioimmunoassay: hybridoma medium against 10 ng I-125 labeled anti-CD20 Bl on 100,000 SB cells
[2] = target: human B lymphocyte-restricted differentiation antigen Bp35 (CD20) (human) (UniProt P11836); assay: direct binding of I-125 radiolabeled antibody to CD20 positive B cells, Scatchard plot; printed as apparent affinity constant (Kap)
[3] = target: T1, human B lymphocyte-restricted …; assay: as above

Molecule | % inhibition of I-125 labeled anti-CD20 Bl binding [1] [%] | Kd [2] [nM] | Kd [3] [nM]
murine anti-CD20 monoclonal antibody 2B8 | 50 | 3.5 | –
B1 | – | – | 5.2
B2 | – | – | 7.4
